assay: soluble on expression in E. coli; label from the status in PepcDB or PDB records

| Sequence | soluble on expression in E. coli |
| --- | --- |
| MTEVEKSRSGRIVKRKVFADFQQLDDDLKSITTEELRESASESKKLRLGPTRRSCRNIPTNYEELKAKTDAGIIPETVYYRASNNSMYIPSITADMLKNDGNDLTVQTRSDKYFKYNRVRQSTKIDYAEPEKVYDIIYAVRKRPILWDQRLICHRNSNLSRRAWDQLDLELGIDEEYPLARRKQIWKSKRDYFVSAVNAANLRKWIYADALEFYRPMINFRTTFCLRPTVAQPSQSVHDKLVLADKNIQCTPGDKKNVLTFLLKSLYDTGMSSPEMMAEHGLEILKIFKKNAESSNLKLN | not soluble |
| MTFFFVFLALLSLLAFVIRKAHRNTYEAVLHKVQVGRSEDGDGAIRILQLSDLHLEKLSITPDDLYEKLKEEEIDLIALTGDFLDREESIAKLGPYLAALNALKPTYGMYAVFGNHDYVLQGEPFARLKATLEAHGCVVLQNETKTITVNGQTVNIIGIDDFYTGRSDIEKAYAGVKDGISLVLTHDPDIVPHMKDYHFDYLLSGHFHGGQIHWPKPYHLAKMSKTLTERNMIKGYHEWEGKPFYINEGLGQTGVNIRIGSKPEVTLHLLALPSRREAVKAV | not soluble |
| MTFQETISAYIQERYQITPDFPFKKHPDYLVFRHPRNAKWFALIMPLDAQLLGATENKQLTILTVKLAPELIALLKNQPGYFPAYHMNKEHWLSLSEEIPLSQVFSFIDESYQRSY | not soluble |
| MTGCSHRFYYSHMIQTSVRSFEVGEDLASMAVDERISLLRSRMQSISKSGDFSLDYNCKTADKNIIPLSDPLSHVLPWGGLPRG | not soluble |
| MTGKKRSASSSRWLQEHFSDKYVQQAQKKGLRSRAWFKLDEIQQSDKLFKPGMTVVDLGAAPGGWSQYVVTQIGGKGRIIACDLLPMDPIVGVDFLQGDFRDELVMKALLERVGDSKVQVVMSDMAPNMSGTPAVDIPRAMYLVELALEMCRDVLAPGGSFVVKVFQGEGFDEYLREIRSLFTKVKVRKPDSSRARSREVYIVATGRKP | soluble |
| MTGLDKIISQILEDAGKEAQEISEKAKSEAEAVLAEAKAGCKKIAAENDEKLAGEATSYMERIKSSAELKKRQAVLLAKQQVITEMLEQAYEALLKKEGEEYFALIGKMLDKYVLPKTGEIYFSEKDLDRMPQGFEAVIEKAAVSKGGSLTLVKEPKNIDGGFILVYGGIEENCSFRALLAARRDELSDKVHAMLFS | not soluble |
| MTGMTNVTKLASEPSGQEFLVFTLGDEEYGIDILKVQEIRGYDQVTRIANTPAFIKGVTNLRGVIVPIVDLRIKFSQVDVDYNDNTVVIVLNLGQRVVGIVVDGVSDVLSLTAEQIRPAPEFAVTLSTEYLTGLGALGDRMLILVNIEKLLNSEEMALLDSAASEVA | soluble |
| MTGNLVTKNSLTPDVRNGIDFKIADLSLADFGRKELRIAEHEMPGLMSLRREYAEVQPLKGARISGSLHMTVQTAVLIETLTALGAEVRWASCNIFSTQDHAAAAVVVGPHGTPDEPKGVPVFAWKGETLEEYWWAAEQMLTWPDPDKPANMILDDGGDATMLVLRGMQYEKAGVVPPAEEDDPAEWKVFLNLLRTRFETDKDKWTKIAESVKGVTEETTTGVLRLYQFAAAGDLAFPAINVNDSVTKSKFDNKYGTRHSLIDGINRGTDALIGGKKVLICGYGDVGKGCAEAMKGQGARVSVTEIDPINALQAMMEGFDVVTVEEAIGDADIVVTATGNKDIIMLEHIKAMKDHAILGNIGHFDNEIDMAGLERSGATRVNVKPQVDLWTFGDTGRSIIVLSEGRLLNLGNATGHPSFVMSNSFANQTIAQIELWTKNDEYDNEVYRLPKHLDEKVARIHVEALGGHLTKLTKEQAEYLGVDVEGPYKPDHYRY | soluble |
| MTGRTGGNGSTQAQPERVMLVGVMLDKDGTGSSAARLNGFQTALAEAVELVKAAGGDSVRVETAKRDRPHTALFVGTGKAAELSEAVAADGIDLVVFNHELTPTQERNLEKELKCRVLDRVGLILAIFARRARTQEGRLQVELAQLSHLAGRLIRGYGHLQSQRGGIGMKGPGETKLETDRRLIAHRINALKKQLANLKKQRALRRKSRESGTIKTFALVGYTNVGKSSLFNRLTKSGIYAKDQLFATLDTTARRLYISPECSIILTDTVGFVSDLPHKLISAFSATLEETAQADVLLHVVDAAAPNSGQQIEDVENVLQEIHAGDIPCIKVYNKTDLLPSEEQNTGIWRDAAGKIAAVRISVAENTGIDALREAIAESCAAAPNTDETEMPLEHHHHHH | soluble |
| MTGSACFFSTDFLFGRYGPTVCIIPSENIPDKANTMIRPDFQEYLPSYYFSSVNPHTVYPKLQCRLKAETCIIGGGLSGLCTALPLAEHGHEAVVLEAARIGFGASGRSGGQVISDYACGMGEIEKQVGLEQAQWFWQQSLQAVELVDERVRKHAIDCDWQRGYATVAVRPQHWEELQQWHEHAQRHYGASHYQLWDKAELKQQLDSDMYQGAQFDPLSGHLHPLNYTLGVASAAAEAGAQIFEQSPMTRIEPYQNGWLVYTPEGSVECKNVVYAVNTYVGLNPIFRPLERKAIAVSTFIIATEPLGARTKGLIRNNMAVCDNRHILDYYRLSADGRLLFGGKDNEFIDNPARMTELVRQDMLKVFPQLADVRIEYSWGGECDITANLVPHFGRLTSNVFYTQGYSGHGMAITGIAGLAVAEAILGDECRLKPFEQLCQPNIILQPFLRKLGSFLGSKYYQWKDSRLEHHHHHH | not soluble |
| MTHETDKIVEIERQKIEVENERFAIEDECCSIKKRIDVLDGVAAQISSGPASMGFSGQCSSSIPASGSQPHLTRRHTVTGQEPNPLAMSQNQMSTGFFFNHESLDNLAKFLGYYGE | not soluble |
| MTHFKGGTMSQFEKYHPILTPHYTFDWLTKVRVIDVFNLYQTSNATATMETTAAQINHTMREIFHDHQLVWGVTARDTNAFVGQVGFAPIDTAKHEATLSVDLTATYQQVTTLREILERLVAFGTVELKLNRLTLILPKHDDLMAQILAGLNFSTTDHLTFNYHQ | not soluble |
| MTHPRDSIALTSDSLVLRFLSESGIPISDNNKVRLLKSGREKFIDLFSAIRDAKHHIHLEYFNFRNDSIANALFDLLAEKVKEGVEVRAMFDAFGNWSNNKPLKKRHLKKIREQGIEIVKFDPFTFPYINHAAHRDHRKIAVIDGEVAYTGGMNIADYYINGLPKIGTWRDMHMRIEGDAVNDLQEIFLTIWNKETKQNIGGEAYFPKHKEQSDSTNVVVAIVDRTPKKNSRMLSHA | not soluble |
| MTIKEDLGRRIKAERNRKQLTQSLLCGDETKLTIRQLQRIEGGQSLPTLEKLEFIADRLGTKIADLLEGSDIQLPDDYWELKGQIVKFPTYADKERLQQKQELIEEIYDKYFDILPEDELLFLDLSENILDSFHEKDIPNIEEIYDDAFEQVLKKETFAFNDYLYMSYFLQKCGKTADYDQTTFKLLEQKLLKQELTVDELYNIELLIAVMEASGVYALHNDYQNLLPLMKKAQRIIDKAQLHTYKPPLLELEAKYYVKVVKDKKKAKELYQQALVMGEVLGDPVIIADVKMEMANDGID | not soluble |
| MTILSVSPNKREDLSMKRKIALAMVLAMTASMAQPVLAADSKTTLDVIISQYGTQTQTWWTQFEKDFEAENPDIDLNVEIVSWNDLYTKVNTLVANNNAPDILNIDVLADYVADDLLMPATEYASEDLQAKFFPAFWEASTIDDTVYALPILASCRALFYNKDILDEAGATVPTTWAEVQETAQKIKDKFGDDVYPWGIDMTTDEGQAAFSYYTWNNGGGFVDENGDWALNSDKNVEALNFAIGLVNDGYTNSDPANETRYDLQDMFGAGKVAMMIGPNNIPTYLSDGGYDINYDVTTIPANEGCDSVAMGVCDRLEVFKDDSAEDQEARTAAISKFFDFFYDDERYADYMVFEGFLPTTQTAADLLAKDDDTFASWIDILQSCNFYPATKTEWADVKQGVIEVEQNALLGDDVQTLLDDLQADIAG | not soluble |
| MTITQKGDHHSILAKLRHRNIILAKLEKAYKIPSSNIKNIWTQLNEKIEHTIADFIRLLAKQMFINRYLKSCIRISKAEKKRDTVSLVHHLFYNNAA | not soluble |
| MTIYLVRHGESKSNYDNKHFRSYFCGQLDVPLTDTGTKSADDLCDYFKEKQIKHVYVSDLLRTQQTFEHIFPYDIASTTTPLLRERSLGVFEGEYKDEISANPKYEKYFNDPNFKDFRHSFSQKAPEGESYEDVYQRVEHFMNHVVNEDTQKDDIVIVAHQVVIRCLMVYFNKVSRAEAVDLKVENCKPYIIE | not soluble |
| MTKAELRRRARAAWRRLDLKALSRAVGAALLPWLRERGFRHILLYHPLPHELNLLPLMEAYPARYYLPKVAGKGLTVHPFGPLAPGPFGLLEPTTPPEDPRVLDLVVVPGLAFDREGYRLGHGQGFYDRFLKEVRAATVGVVPQALLFPALPRDPWDVPVDHLATEAGVEAVKRPAPGPGGLLD | soluble |
| MTKIFAKEWNMSDPGRALASFFATLPTRPQLLALGEPNHTDDAFPAQRNRLFRTLVEEYGFRSIALESDILAGQRVNAYVTGGADDLEEVMRTGFSHDFGRRAANRELVGWLRDFNAGRSADEQVHFYGFDPPMENLWAASPRASLLTLHALLARQVPALPVSAATIERLCGDDARWANPAAGMDAAQSIGHSDEARQLRVLTDDLLHRLETGAPGLAEQPDFWEAQLAARTAAGLLRYHAVMADPAPDRIARMLAARDLLMAGHLLAIAEREQRCGPTLVFAHNLHLQRPLSRMKMGAQKIGAQTLDWWGAGAHVSRRLGERYAFIASYPGAAEETFLVPSSELTEAAATQLSVRDDGQPYSFPFKLSDLPFLNGALLVGQFLEHHHHHH | soluble |
| MTKIIKNGTIVTATDTYEAHLLIKDGKIAMIGQNLEEKGAEVIDAKGCYVFPGGIDPHTHLDMPLGGTVTKDDFESGTIAAAFGGTTTIIDFCLTNKGEPLKKAIETWHNKANGKAVIDYGFHLMISEITDDVLEELPKVLEEEGITSLKVFMAYKNVFQADDGTLYCTLLAAKELGALVMVHAENGDVIDYLTKKALADGNTDPIYHALTRPPELEGEATGRACQLTELAGSQLYVVHVTCAQAVEKIAEARNKGLDVWGETCPQYLVLDQSYLEKPNFEGAKYVWSPPLREKWHQEVLWNALKNGQLQTLGSDQCSFDFKGQKELGRGDFTKIPNGGPIIEDRVSILFSEGVKKGRITLNQFVDIVSTRIAKLFGLFPKKGTIVVGSDADLVIFDPNIERVISAETHHMAVDYNAFEGMKVTGEPVSVLCRGEFVVRDKQFVGKPGYGQYLKRAKYGT | soluble |
| MTKIRQKSRKPGRTSRAKPVVAVVWYEDEQEWRAMRDLADDPERFEDSYEAWLTMFDRSLERLREGGAFPVRTPCNATKYREWCESKARSFDACSRSEYAAREFQARATQDE | not soluble |
| MTKKDEVKELEVKNNIPEAEKKPFNKFGKQEKHTVEDVEYTFQFPGTRAAQAILDNSKGPSNTFSDVAYHSQLMDSVIVTPKLNWDYWDEHEGYREVMALADNFLGRMLN | not soluble |
| MTKKYDLHCHSTASDGVLSPTELVHRAYAQGVNVLALCDHDTIAGIDEAEIAAKEVGIELITGVEISTNWEGRGIHIVGLNFDKTHPKMTALLQSQKALREKRAVEIGDKLEKAGIPNAYDGAKALADGEVTRAHYARYLVQIGKVSNDGQAFKRYLGQGKSAFVKAEWADIPTAIETIHAAGGIAIIAHPLRYNMTGKWVRKLIVDFKAWGGDGMEMADCGQTKDQRQMLARWAKEFDLQGSVGSDFHFPCGWIELGKNLDLVDSVIPVWEKF | not soluble |
| MTKLTIFYDGTCPLCAKEMKALRQHDHKQEINTVDIYSDAFSAYPQINPDRANTILHALDNQGNLLLGLDVTYRAWQLVGRGWLYAPLRWPLIRPVADWLYLRFAQNRYRISYWLTGTSRCNSGRCSR | not soluble |

Source: the DeepSol protein solubility set
